assay: soluble on expression in E. coli; label from the status in PepcDB or PDB records

Row | Sequence | soluble on expression in E. coli
1 | METNMTFVLKEFDALKSHFNDTVKIILQREKKDKIEDLPNPRKEELQFLTAVLNQLEAKIDELKPRSLASYVHVFYGAMLLVCKDVENNLRVMEKKENSLLFTRLMDGMGISDENIPTSEQNIMFYRGLNKFLNFIYESNDSRKGLKKEHFLQVLSLKKIYSLAKLSYEQEEAAENNALAKLTADGKTKANANSFHVEKPIDSSIVEQFKSWDEMKGALHQLILDELSDKNVAKISALSQARSAQLKFLQTMAEQLDKIPNQSLEPSEKMAILAGAMYIVRGQIAQEYGKDPLSNDKISATVIHTGLSTILHANADCCEDKEVLIAAANKFIRHMVIERPEQSNKKITKESVRENNMFSDIAGFQLISVLTLIQNMIKTCRTDAIEACVTKRKEELEALKPKKEGYSIASSVTGYVGSWFKKAPSMSEEDEEDDLKDQNTAEETSKPTV | not soluble
2 | MGSDKIHHHHHHMMYTNDNRIVMTLDAGGTNFVFSAIQGGKEIADPVVLPACADCLDKCLGNLVEGFKAIQAGLPEAPVAISFAFPGPADYQAGIIGDLPNFPSFRGGVALGPFLEDIFGIPVFINNDGSLFAYGEALTGVLPEINRRLREAGSTKRYKNLLGVTLGTGFGAGVVIDGELLRGDNAAGGYVWCLRNKKYPEYIVEESVSIRAVMRVYAERSGDAGARTPKEIFEIAEGIRPGNREAAIAAFEELGEMAGDALASAITLIDGLIVIGGGLSGASKYILPVLLKEMNAQTGMMDGARFGRLQKEVYDLDEEKSFAGFARGEAVEVLVPGTNRKVGYDPCKRIGVTFSKQGANRSIAMGAYVFALNHLSK | not soluble
3 | MSYNLLGFLQRSSNFQSQKLLWQLNGRLEYCLKDRMNFDIPEEIKQLQQFQKEDAALTIYEMLQNIFAIFRQDSSSTGWNETIVENLLANVYHQINHLKTVLEEKLEKEDFTRGKLMSSLHLKRYYGRILHYLKAKEYSHCAWTIVRVEILRNFYFINRLTGYLRN | not soluble
4 | GPGSMKTENFPRGQSAGPEGSLVEIPDHGERQQEVCHIGAPLQREIEAPAAEAGQSSDYKKPHAPHLLPVMEPVKPSSDPQLKDGRKEMPFTSALPIVVPDAPRLATQQRQVQKTKGNGSSAVPGEPDTCEGEPRAPSPGDPRPTQAFPAVEPFKRTASAKLSEARTDPRSPSASPDNESDGARVGSRQVDEEGSRPLCTLPAVELRKKPAGSTLQEEQAKELNTTHAFPVVEPDAVCTEARRSEELEDTRAGHAFPPVASGKQNTGA | soluble
5 | MAKKVAVLAVNPVNGCGLFQYLEAFFENGISYKVFAVSDTKEIKTNSGMVLIVDDVIANLKGHEDEFDALVFSCGDAVPVFQQYANQPYNVDLMEVIKTFGEKGKMMIGHCAGAMMFDFTGITKGKKVAVHPLAKPAIQNGIATDEKSEIDGNFFTAQDENTIWTMLPKVIEALKLEHHHHHH | soluble
6 | SELRPSGDSGSSDVDAEISDGFSPLDTSHRDVADEGSLLRRAEMYQDYMKQVPIPTNRGSLIPFTSWVGLSISMKQLYGQPLHYLTNVLLQRWDQSRFGTDSEEQRLDSIIHPTKAEATIWLVEEIHRLTPSHLHMALLWRSDPMYHSFIDPIFPEK | soluble
7 | MGSDKIHHHHHHMSEKKKVLMLHGFVQSDKIFSAKTGGLRKNLKKLGYDLYYPCAPHSIDKKALFQSESEKGRDAAKEFNTSATSDEVYGWFFRNPESFNSFQIDQKVFNYLRNYVLENGPFDGVIGFSQGAGLGGYLVTDFNRILNLTDEQQPALKFFISFSGFKLEDQSYQKEYHRIIQVPSLHVRGELDEVVAESRIMALYESWPDNKRTLLVHPGAHFVPNSKPFVSQVCNWIQGITSKEGQEHNAQPEVDRKQFDKPQLEDDLLDMIDSLGKL | not soluble
8 | MKQQAIDEQLRNAIEYTPEMFTQVPMLYINIEINNYPVKAFVDTGAQTTIMSTRLAKKTGLSRMIDKRFIGEARGVGTGKIIGRIHQAQVKIETQYIPCSFTVLDTDIDVLIGLDMLKRHLACVDLKENVLRIAEVETSFLSEAEIPK | soluble
9 | MAHHHHHHMMSLAIEAVKDFLVKLQDDICEALEAEDGQATFMEDKWTREGGGGGRTRVMVNGAVIEKGGVNFSHVYGKGLPGSSTERHPDMTGCNFQAMGVSLVIHPKNPHVPTSHANVRLFVAEREGKEPVWWFGGGFDLTPYYAVEEDCRYFHQVAQDLCKPFGADVYTRFKVWCDEYFFIPYRNEARGIGGLFFDDLNEWPFEKCFEFVQAVGKGYIDAYIPIVNRRKNTPYTEQQVEFQEFRRGRYAEFNLVIDRGTKFGLQSGGRTESILISLPPRARWGYDWQPEPGTPEARLTEYFLMKRQWV | soluble
10 | MRITTKVGDKGSTRLFGGEEVWKDSPIIEANGTLDELTSFIGEAKHYVDEEMKGILEEIQNDIYKIMGEIGSKGKIEGISEERIKWLEGLISRYEEMVNLKSFVLPGGTLESAKLDVCRTIARRAERKVATVLREFGIGKEALVYLNRLSDLLFLLARVIEIEKNKLKEVRS | soluble
11 | MKSVQEKRNNTRAFKTVAKSWFATKTTWSEDYQRSVWTRLETYLFPDIGNKDIAELDTGDLLVPIKKIEKLGYLEIAMRVKQYATAIMRYAVQQKMIRFNPAYDLEGAVQKLEHHHHHH | soluble
12 | MDAPRINKWLKPLSALYGVGVRLRNYLFDKNVLISNSFDIPIVCVGNITIGGTGKTPHVEYLIRLLHPRYRVAVVSRGYKRKTKGMIVATEGSTAWDIGDEPRQIKRKYPDLTVIVDADRSRAIGYLCDLAEEQRPQLIVLDDGFQHRKVKADLNIVLTDYNRILTKDYLLPAGRLREPAGSIQRADMVILTKCPDDLAPIDLRAAKRDLALYPHQKLFFSKFLYGQGLKPLFSDQSPSAEVRSALAIAGIASPKLFFREIRTRFPSGTDRIYPDHHEFTDREICLLIQDWHELHRKDANAIVVCTEKDAMRLALRQSSFPQEMQERFYYLPVEVKLMFDQEKVFVDRLLGVIQHKKLEHHHHHH | not soluble
13 | MAHHHHHHMLQEYTGERCVSYRVNPQRGGCVETVAEVDAQDFFTEPGGLVTSPTTPSTPAGSTSARQARRRVVTTLERILLPDGYPSSVTEDLLPFALWDLAQVLAKNVTATLSTRAVLLGVGVGESKADLTSATLSWMMQDGTRMIGSVVFAPLIPQGLECRAKTWQLVADFTTDIANLLELCAPWLPGGQTTFRVVLVAASVVKALGSVCRNCTRASFTRHFALRNNAADIAAKASTRSSVGSFIGLVLGVAVAYIVPATSRSLNLVVFALGSVLHIFASYRSVRGVQLKHLNAPRLEWCLVQYSLFEAKVLIASKKDSGPLSVMPILDVSPRSANAAERLLILPSLRAVPPPSDSFYDSVRGFLCRYCFPPTLTLRIHCGASLFRLLQHQRGLTTRCKHELVQQVESALASRGIALLVDDVDMTYYVILPEYFTVEGVPAMWVRYKRQYGDDLTCMEAKQRQSAAARAAQRRQDGAASLSPSGAAVAAPDAGHGLDEAGRRAAQAEAELERLQKERVVVPPHILPLAYRQLWAYFYAFMHYRAVRLRREGPLTHAKDVLEGLHKNRSLECQRLHIITALRADGTLEAGHSDASDVPHSPAQFEEITSPASTTSDVPLERRVVPALATRAGGDDGDDGDNTAAPSYDGLHPQFIEFVRALRMTGWELDELLVGNEGYTTVVHYL | not soluble
14 | MGSDKIHHHHHHMTAPRELTAETRCGSSMDSSPPTATDDINSADIALRVSALSKTYRIYGRSQDRLLQGLWGNRKQLYREFRALDSISFEIRRGETFGIIGPNGSGKSTLLQLIAGTLTPTQGEIYIKGKVSALLELGAGFNGEFTGRENIRMAASIAGLNPGEIGQRHECIAAYADIGDFLDQPVKTYSSGMYVRLAFAVAISVEPEVLIIDEALAVGDMEFQAKCMVTLKQMQERGTTILFVSHDVGAVSALCKRTLYLKHGRALEIGPTPDVVARYIREVQEANNRKINVTVSENNDSRTTSPSDASETGIAPSHRTASLTSAEAASGAASGFLTAASPFRSVEKKHLARFAENANHCRSGTGDVRVIYAEMTDDEGLPVRSAEFGQSVLIRIIVEAARTCTFSVNYKICDKNRTPVIGADFLMQRQALLTLEPSQQAEALYRTSLPLTDGRYSLRISLTHPVNAHQQALFFDIVEIAHVFEVLPNPTAKFWTQVYLPNTLDVRVLE | not soluble
15 | MSLEKWRIYEELTNAVREFESINPVRLIPEVGTNFVYSLPLPYARSTKDVAGVKGRIVKYGNSVKAVGPVEFGASDHLARAVLTYMRFYPEYRSAINIRYSREIIEEIIEIAQERGFKVSFYDRREEPEEIKAKEGATIPWGIETAIKRIKERPDIIYHLGDVGKEPMILVFGRNPREVLEKIKMLIEGHHHHHH | soluble
16 | MSLDDKATKPHDRLAQALAEDMAAVNALIRERMSSEHAPRIPEVTAHLIEAGGKRLRPMLTLAAARLVGYGGPFHVHLAATVEFIHTATLLHDDVVDESRQRRGRPTANLLWDNKSSVLVGDYLFARSFQLMTDTGNMRVMEILANASAVIAEGEVLQLTAAQNLATTEDIYLRVIRGKTAALFSAATEVGGIIGGAPEDQVQALFDYGDALGIAFQIVDDLLDYGGKSAEIGKNTGDDFRERKLTMPVIKAVALADEAERAFWKRVIEKGDQQDGDLEHAMALMTKHGTLEATRLAAIGWTDTARKALAKLPDHPLRQMLDDLADYVVERVREGHHHHHH | soluble
17 | MKTLLEVKDLQVSFDTHAGEVQAVRGVTFDLKKGETLAIVGESGSGKSVTSKALMGLIPNPPGRIKNGEIVFEGRDLTKLTEKEMQQVRGKDIAMIFQDPMTSLNPTMTIGNQIMEGLIKHQGMSKADARKVALELIDLVGIPNPEARLKQYPHQFSGGMRQRVVIAMALACNPKLLIADEPTTALDVTIQAQILELMKDIQQKTEAAIIFITHDLGVVANVADRVAVMYAGKVVEIGTVDEIFYNPKHPYTWGLIASMPSLDGSEEELYAIPGTPPDLLKPPKGDAFAPRNPQALKIDFEMDPPLFKVSDTHYAATWLLHEQAPEVRPPAVVEKRILQMKAGEQHD | not soluble
18 | MSLDRILTFDCYGTLIDTKPVFDAISNIAKNNILNSKDAVNIYVNYEDRLMYGETYIPYDKLIKQVLEYCDMELVTNVFSKSYDEIISVHKRLKPFKEVVESLEKIHKKGYELALMSNSVHDIIDYNLDALGNVFNNVFLSEDIHAYKPQLKFFKYVEERLELKQKKHCHIAKGYWWDIVPCSKLGWRKIWVNRENKKGNKCHEPYEEVHTLDEVINLIEGHHHHHH | soluble
19 | MGMDQSRLMSGAAGGALVLMGLKKRGVLGLLMTVGGGYLAYKAATGKDPVMEAAGLTGSAGAAKPIFVEHSIVIDRPAQQVYDYWRKLENLPQIMSHLESVTVLDDKRSRWVAKAPLGTHVEWEAEVVNDKPGERIGWHSLPGATVDNAGSVQFESLPDDKTRVHVALSYRPPAGPLGAAVAKLFGEEPSQQIAEDLQKFKATFEGLEHHHHHH | soluble
20 | SKEDCLPSSHVPISDSKSIQKSELLGLLKTYNCYHEGKSFQLRHREEEGTLIIEGLLNIAWGLRRPIRLQMQDDREQVHLPSTSWMPRRPSCPLKEPSPQNGNITAQGPSIQPVHKAESSTDSSGPLEEAEEAPQLMRTKSDASCMSQRRPKCRAPGEAQRIRRHRFSINGHFYNHKTSVFTPAYGSVTNVRVNSTMTTLQVLTLLLNKFRVEDGPSEFALYIVHESGERTKLKDCEYPLISRILHGPCEKIARIFLMEADLGVEVPHEVAQYIKFEMPVLDSFVEKLKEEEEREIIKLTMKFQALRLTMLQRLEQLVEAK | soluble
21 | MGSDKIHHHHHHMEINGHEIQFKDNAVFLEENKILILADVHVGMEEFIRRNGVLFPLNEKKELLKRLKNLIVEFKPEKLVFLGDFLHHFQKVPYKVYETIRELNSLLKNYEIIVIRGNHDIMLEYILKENTNFKILDYLLENKILMIHGDKKFDIDFNFDLLIMGHEHPVLEINKQRFPSYLEIVQNDFKILVAPAFSNIASGVKINELESNFMSPYLKKVKKEDIFPIIIGEEVLKFPDLSKIEKFL | not soluble

Reference: the DeepSol protein solubility set
